{
  "source": "paper PMC7460833",
  "about": "“Exploring the Role of Phenylalanine Residues in Modulating the Flexibility and Topography of the Active Site in the Peroxygenase Variant PaDa-I” (International Journal of Molecular Sciences, 2020)",
  "proteins": {"B1": {"name": "PaDa-I (AaeUPO variant) (Cyclocybe aegerita; F119A/F354L/I291V/L110F/V100A/V118I) (protein)", "chain": "EPGLPPGPLENSSAKLVNDEAHPWKPLRPGDIRGPCPGLNTLASHGYLPRNGVATPAQIINAVQEGFNFDNQAAIAATYAAHLVDGNLITDLLSIGRKTRLTGPDPPPPASVGGLNEHGTFEGDASMTRGDAFFGNNHDFNETLFEQLVDYSNRFGGGKYNLTVAGELRFKRIQDSIATNPNFSFVDFRFFTAYGETTFPANLFVDGRRDDGQLDMDAARSFFQFSRMPDDFFRAPSPRSGTGVEVVVQAHPMQPGRNVGKINSYTVDPTSSDFSTPCLMYEKFVNITVKSLYPNPTVQLRKALNTNLDFLFQGVAAGCTQVFPYGRD", "notes": "laboratory-evolved secreted variant; plasmid pJRoC30-PaDa-I in Saccharomyces cerevisiae BJ5465, purified; only F311L given; recalled mature changes V57A/L67F/V75I/I248V/F311L (plus signal peptide F12Y/A14V/R15G/A21D); heme-thiolate, N-glycosylated"}, "B2": {"name": "PaDa-I (AaeUPO variant) (Cyclocybe aegerita; F119A/F234A/F354L/I291V/L110F/V100A/V118I) (protein)", "chain": "B1 chain with F191A", "notes": "as for B1"}, "B3": {"name": "PaDa-I (AaeUPO variant) (Cyclocybe aegerita; F234A/F354L/I291V/L110F/V100A/V118I) (protein)", "chain": "B1 chain with A76F, F191A", "notes": "as for B1"}, "B4": {"name": "PaDa-I (AaeUPO variant) (Cyclocybe aegerita; F119L/F234A/F354L/I291V/L110F/V100A/V118I) (protein)", "chain": "B1 chain with A76L, F191A", "notes": "as for B1"}, "B5": {"name": "PaDa-I (AaeUPO variant) (Cyclocybe aegerita; F119L/F354L/I291V/L110F/V100A/V118I) (protein)", "chain": "B1 chain with A76L", "notes": "as for B1"}},
  "substrate": "O=[N+]([O-])c1ccc2c(c1)OCO2",
  "assay": "purified protein",
  "assay_type": "biochemical, Cyclocybe aegerita",
  "details": "H2O2 1 mM, potassium phosphate 50 mM pH 7.0, 20% v/v acetonitrile",
  "note": "Positions count from the first letter of the chain named. Names may count otherwise.",
  "data": [
    {"protein": "B1", "values": [
      {"measurement": "Km", "result": "1386 ± 176", "unit": "µM"},
      {"measurement": "kcat", "result": "356 ± 30", "unit": "s⁻¹"},
      {"measurement": "kcat/Km", "result": 257000, "unit": "M⁻¹ s⁻¹"}
    ]},
    {"protein": "B2", "values": [
      {"measurement": "Km", "result": "1389 ± 119", "unit": "µM"},
      {"measurement": "kcat", "result": "258 ± 15", "unit": "s⁻¹"},
      {"measurement": "kcat/Km", "result": 186000, "unit": "M⁻¹ s⁻¹"}
    ]},
    {"protein": "B3", "values": [
      {"measurement": "Km", "result": "525 ± 73", "unit": "µM"},
      {"measurement": "kcat", "result": "279 ± 18", "unit": "s⁻¹"},
      {"measurement": "kcat/Km", "result": 531000, "unit": "M⁻¹ s⁻¹"}
    ]},
    {"protein": "B4", "values": [
      {"measurement": "Km", "result": "1552 ± 155", "unit": "µM"},
      {"measurement": "kcat", "result": "332 ± 33", "unit": "s⁻¹"},
      {"measurement": "kcat/Km", "result": 214000, "unit": "M⁻¹ s⁻¹"}
    ]},
    {"protein": "B5", "values": [
      {"measurement": "Km", "result": "890 ± 81", "unit": "µM"},
      {"measurement": "kcat", "result": "454 ± 22", "unit": "s⁻¹"},
      {"measurement": "kcat/Km", "result": 510000, "unit": "M⁻¹ s⁻¹"}
    ]}
  ]
}
